Assay results taken from the supplement of paper PMC10567573.

B1: EHMT1 (parent)
chain: SARQGELQKVLLMLVDGIDPNFKM
B2: TMEM175 (parent)
chain: QTSAFARQPRDELERVRVSCTIIF

Variants of: B1
Experiment: protein stability index of a GFP-peptide fusion (GPS, HEK-293T) (PSI 1-6); higher = more stable
Conditions: c terminus: a fixed tail appended
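Further: lentivirally expressed fusions sorted by FACS into six bins by GFP to DsRed ratio, PSI derived from sequencing read proportions per bin multiplied by bin number.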

Going from SARQGELQKVLLMLVDGIGPNFKM to SARQGELQKVLLMLVDGIAPNFKM, the protein stability index rises from 2.8 to 3.05.

First: SARQGELQKVLLMLVDGIEPNFKM
Second: SARQGELQKVLLMLVDGIHPNFKM
The protein stability index of the first is lower: 1.5 for the first, 3.59 for the second.

First: SARQGELQKVLLMLVDGIKPNFKM
Second: SARQGELQKVLLMLVEGIDPNFKM
The protein stability index of the first is higher: 1.81 for the first, 1.51 for the second.

Compared with SARQGELQKVLLMLVFGIDPNFKM, SARQGELQKVLLMLVCGIDPNFKM is higher in protein stability index: 1.6 for the first, 1.61 for the second.

First: SARQGELQKVLLMLVNGIDPNFKM
Second: SARQGELQKVLLMLVVGIDPNFKM
The protein stability index of the first is higher: 2.72 for the first, 2.27 for the second.

First: SARQGELQKVLLMLVWGIDPNFKM
Second: SARQGELQKVLLMLVIGIDPNFKM
The protein stability index of the first is higher: 1.96 for the first, 1.69 for the second.

First: SARQGELQKVLLMLVTGIDPNFKM
Second: SARQGELQKVLLMLVKGIDPNFKM
The protein stability index of the first is higher: 2.8 for the first, 2.45 for the second.

Going from SARQGELQKVLLMLVQGIDPNFKM to SARQGELQKVLLMLVLGIDPNFKM, the protein stability index falls from 2.49 to 2.31.

Compared with SARQGELQKVLLMLVMGIDPNFKM, SARQGELQKVLLMLVPGIDPNFKM is lower in protein stability index: 2.7 for the first, 2.41 for the second.

Going from SARQGELQKVLLMLVAGIDPNFKM to SARQGELQKVLTMLVDGIDPNFKM, the protein stability index falls from 2.11 to 1.28.

Going from SARQGELQKVLVMLVDGIDPNFKM to SARQGELQKVLRMLVDGIDPNFKM, the protein stability index rises from 1.66 to 2.12.

Going from SARQGELQKVLQMLVDGIDPNFKM to SARQGELQKVLSMLVDGIDPNFKM, the protein stability index rises from 2.02 to 2.18.

Compared with SARQGELQKVLLMWVDGIDPNFKM, SARQGELQKVLLMPVDGIDPNFKM is higher in protein stability index: 1.79 for the first, 3.21 for the second.

Compared with SARQGELQKVLLMTVDGIDPNFKM, SARQGELQKVLLMGVDGIDPNFKM is higher in protein stability index: 1.7 for the first, 2.36 for the second.

First: SARQGELQKVLLMYVDGIDPNFKM
Second: SARQGELQKVLLMQVDGIDPNFKM
The protein stability index of the first is lower: 1.76 for the first, 2.54 for the second.

Compared with SARQGELQKVLLMHVDGIDPNFKM, SARQGELQKVLLMAVDGIDPNFKM is higher in protein stability index: 2.38 for the first, 2.39 for the second.

First: SARQGELQKVLLMDVDGIDPNFKM
Second: SARQGELQKVLLMFVDGIDPNFKM
The protein stability index of the first is higher: 3.47 for the first, 1.93 for the second.

First: SARQGELQKVLLMKVDGIDPNFKM
Second: SARQGELQKVLLMCVDGIDPNFKM
The protein stability index of the first is higher: 2.74 for the first, 1.46 for the second.

First: SARQGELQKVLLMRVDGIDPNFKM
Second: SARQGELQKVLLMIVDGIDPNFKM
The protein stability index of the first is higher: 2.61 for the first, 1.98 for the second.

First: SARQGELQKVLLMEVDGIDPNFKM
Second: SARQGELQKVLLMSVDGIDPNFKM
The protein stability index of the first is higher: 3.22 for the first, 3.03 for the second.

Going from SARQGELQKVLLMMVDGIDPNFKM to SARQGELQKVLLMVVDGIDPNFKM, the protein stability index falls from 3.99 to 2.53.

Compared with SARQGELQKVLLMNVDGIDPNFKM, SARQGELQKVLLMLVDGVDPNFKM is lower in protein stability index: 3.02 for the first, 1.59 for the second.

First: SARQGELQKVLLMLVDGCDPNFKM
Second: SARQGELQKVLLMLVDGPDPNFKM
The protein stability index of the first is higher: 2.47 for the first, 1.06 for the second.

Going from SARQGELQKVLLMLVDGQDPNFKM to SARQGELQKVLLMLVDGTDPNFKM, the protein stability index falls from 3.19 to 2.22.

Compared with SARQGELQKVLLMLVDGEDPNFKM, SARQGELQKVLLMLVDGFDPNFKM is lower in protein stability index: 2.49 for the first, 1.81 for the second.

First: SARQGELQKVLLMLVDGSDPNFKM
Second: SARQGELQKVLLMLVDGNDPNFKM
The protein stability index of the first is lower: 1.97 for the first, 2.24 for the second.

Compared with SARQGELQKVLLMLVDGKDPNFKM, SARQGELQKVLLMLVDGHDPNFKM is higher in protein stability index: 1.46 for the first, 2.42 for the second.

Compared with SARQGELQKVLLMLVDGYDPNFKM, SARQGELQKVLLMLVDGDDPNFKM is lower in protein stability index: 2.76 for the first, 2.22 for the second.

Going from SARQGELQKVLLMLVDGADPNFKM to SARQGELQKVLLMLVDGRDPNFKM, the protein stability index rises from 1.18 to 1.66.

First: SARQGELQKVLLMLVDGWDPNFKM
Second: SARQGELQKVLLMLVDGLDPNFKM
The protein stability index of the first is higher: 2.54 for the first, 2.07 for the second.

Going from SARQGELQKVLLMLVDLIDPNFKM to SARQGELQKVLLMLVDMIDPNFKM, the protein stability index falls from 2.07 to 1.78.

Compared with SARQGELQKVLLMLVDPIDPNFKM, SARQGELQKVLLMLVDHIDPNFKM is lower in protein stability index: 1.97 for the first, 1.87 for the second.

Compared with SARQGELQKVLLMLVDFIDPNFKM, SARQGELQKVLLMLVDDIDPNFKM is lower in protein stability index: 3.49 for the first, 1.36 for the second.

Going from SARQGELQKVLLMLVDSIDPNFKM to SARQGELQKVLLMLVDVIDPNFKM, the protein stability index rises from 2.3 to 3.87.

First: SARQGELQKVLLMLVDYIDPNFKM
Second: SARQGELQKVLLMLVDCIDPNFKM
The protein stability index of the first is higher: 2.38 for the first, 2 for the second.

Compared with SARQGELQKVLLMLVDQIDPNFKM, SARQGELQKVLLMLVDEIDPNFKM is higher in protein stability index: 1.61 for the first, 2.08 for the second.

First: SARQGELQKVLLMLVDKIDPNFKM
Second: SARQGELQKVLLMLVDNIDPNFKM
The protein stability index of the first is lower: 1.36 for the first, 2.78 for the second.

Going from SARQGELQKVLLPLVDGIDPNFKM to SARQGELQKVLLYLVDGIDPNFKM, the protein stability index falls from 3.74 to 2.47.

Compared with SARQGELQKVLLSLVDGIDPNFKM, SARQGELQKVLLHLVDGIDPNFKM is lower in protein stability index: 2 for the first, 1.88 for the second.

Compared with SARQGELQKVLLELVDGIDPNFKM, SARQGELQKVLLNLVDGIDPNFKM is lower in protein stability index: 3.12 for the first, 2.46 for the second.

Going from SARQGELQKVLLALVDGIDPNFKM to SARQGELQKVLLDLVDGIDPNFKM, the protein stability index rises from 1.73 to 2.97.

Going from SARQGELQKVLLFLVDGIDPNFKM to SARQGELQKVLLTLVDGIDPNFKM, the protein stability index rises from 1.83 to 2.35.

Going from SARQGELQKVLLILVDGIDPNFKM to SARQGELQKVLLKLVDGIDPNFKM, the protein stability index rises from 1.04 to 1.89.

First: SARQGELQKVLLGLVDGIDPNFKM
Second: SARQGELQKVLLLLVDGIDPNFKM
The protein stability index of the first is higher: 2.37 for the first, 2.11 for the second.

Going from SARQGELQKVLLQLVDGIDPNFKM to SARQGELQKVLLRLVDGIDPNFKM, the protein stability index falls from 2.09 to 1.73.

Variants of: B2
Experiment: as above
Conditions: c terminus: a fixed tail appended

Compared with ETSAFARQPRDELERVRVSCTIIF, FTSAFARQPRDELERVRVSCTIIF is higher in protein stability index: 2.25 for the first, 3.36 for the second.

Compared with ATSAFARQPRDELERVRVSCTIIF, DTSAFARQPRDELERVRVSCTIIF is lower in protein stability index: 3.97 for the first, 1.63 for the second.
